In PMC10359602, “High fidelity DNA strand-separation is the major specificity determinant in DNA methyltransferase CcrM’s catalytic mechanism”:

Columns and labels:
CcrM WT [1] = molecular target: T1, CcrM WT (Caulobacter crescentus, UniProt P0CAW2 1-358); experiment: fluorescence anisotropy; 30 uM SAH; Hill h = 2.5; apparent Kd; Anisotropy: 10 nM FAM-DNA, 0-1000 nM protein, 30 uM SAH, 100 mM HEPES, 1 mM EDTA, 20 mM NaCl, pH 8, room temperature, 20 min; Trp fluorescence: same buffer plus 2 mM DTT, 500 nM protein, 60 uM sinefungin, 5 uM DNA; conditions: protein: recombinant; chain copies: 2; label: 5' 6-FAM on strand 1; blunt
T1 sequence (P0CAW2 whole entry): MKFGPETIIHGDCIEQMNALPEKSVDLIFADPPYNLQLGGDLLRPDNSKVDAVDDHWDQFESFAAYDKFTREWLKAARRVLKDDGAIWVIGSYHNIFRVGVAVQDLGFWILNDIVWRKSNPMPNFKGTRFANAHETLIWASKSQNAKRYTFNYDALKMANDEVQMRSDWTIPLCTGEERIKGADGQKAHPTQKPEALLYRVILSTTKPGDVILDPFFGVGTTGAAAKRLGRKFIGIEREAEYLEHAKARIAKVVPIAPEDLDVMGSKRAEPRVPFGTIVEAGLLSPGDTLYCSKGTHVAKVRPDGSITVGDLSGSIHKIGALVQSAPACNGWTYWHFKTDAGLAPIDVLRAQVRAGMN

CcrM R350A = CcrM R350A (Caulobacter crescentus, UniProt P0CAW2 1-358, R350A); experiment: fluorescence anisotropy; 30 uM SAH; Hill h = 1.3; apparent Kd, above tested range 0-1000 nM; Anisotropy: 10 nM FAM-DNA, 0-1000 nM protein, 30 uM SAH, 100 mM HEPES, 1 mM EDTA, 20 mM NaCl, pH 8, room temperature, 20 min; Trp fluorescence: same buffer plus 2 mM DTT, 500 nM protein, 60 uM sinefungin, 5 uM DNA; conditions: protein: recombinant; chain copies: 2; label: 5' 6-FAM on strand 1; blunt
Sequence of CcrM R350A (P0CAW2 whole entry R350A): as the sequence (P0CAW2 whole entry) above, with R350A counted along it

CcrM WT [2] = molecular target: T1, CcrM WT; experiment: fluorescence anisotropy; 30 uM SAH; Hill h = 2.1; apparent Kd; Anisotropy: 10 nM FAM-DNA, 0-1000 nM protein, 30 uM SAH, 100 mM HEPES, 1 mM EDTA, 20 mM NaCl, pH 8, room temperature, 20 min; Trp fluorescence: same buffer plus 2 mM DTT, 500 nM protein, 60 uM sinefungin, 5 uM DNA; conditions: protein: recombinant; chain copies: 2; label: 5' 6-FAM on strand 1; blunt
CcrM WT [3] = molecular target: T1, CcrM WT; experiment: equilibrium Trp fluorescence; 60 uM sinefungin; smaller change than dsDNA; Anisotropy: 10 nM FAM-DNA, 0-1000 nM protein, 30 uM SAH, 100 mM HEPES, 1 mM EDTA, 20 mM NaCl, pH 8, room temperature, 20 min; Trp fluorescence: same buffer plus 2 mM DTT, 500 nM protein, 60 uM sinefungin, 5 uM DNA; conditions: protein: recombinant; chain copies: 2; single strand

B1: C1-FAM (dsDNA)
DNA 1: TCACTGTACTCTGACTCGCCTGACATGAC
DNA 2: GTCATGTCAGGCGAGTCAGAGTACAGTGA
modifications: N6-methyl-A at position 14 (5' to 3') of strand 2 (hemimethylated)
Binder B1 has a Kd (CcrM WT [1]) of 150 ± 5.4 nM and a Kd (CcrM R350A) of 2110 ± 193 nM.

B2: NC-FAM (dsDNA)
DNA 1: TCACTGTACTCTGACTGGCCTGACATGAC
DNA 2: GTCATGTCAGGCCAGTCAGAGTACAGTGA
modifications: N6-methyl-A at position 14 (5' to 3') of strand 2
In the case of B2, the Kd (CcrM WT [2]) is reported as 135 ± 7.6 nM.

TCACTGTACTCTGACTCGCCTGACATGAC (ssDNA) [cognate ssDNA]: binds (CcrM WT [3]).
